# In paper PMC3327659:
# Columns and labels:
# [1] = biological target: T1, DR2539 (Deinococcus radiodurans R1 (ATCC13939)) (UniProt Q9RRF3); experiment: EMSA; settings: 30 mM Tris-HCl pH 6.8, 50 mM NaCl, 5% glycerol, 50 ug/mL calf thymus DNA, 50 ug/mL BSA, Mn2+ or Fe2+ (varied), 10 nM FITC-DNA, 30 min at 4 C; 5% native PAGE
# T1 sequence: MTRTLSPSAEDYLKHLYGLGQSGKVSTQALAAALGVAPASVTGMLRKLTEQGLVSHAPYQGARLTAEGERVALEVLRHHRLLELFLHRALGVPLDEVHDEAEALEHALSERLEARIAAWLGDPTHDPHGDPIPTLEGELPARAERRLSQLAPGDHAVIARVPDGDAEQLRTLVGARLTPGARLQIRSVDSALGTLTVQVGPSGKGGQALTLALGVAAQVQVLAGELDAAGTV
# [2] = biological target: T2, DR0865 (Fur homologue) (Deinococcus radiodurans R1?) (UniProt Q9RW04); experiment: EMSA; settings: 30 mM Tris-HCl pH 6.8, 50 mM NaCl, 5% glycerol, 50 ug/mL calf thymus DNA, 50 ug/mL BSA, Mn2+ or Fe2+ (varied), 10 nM FITC-DNA, 30 min at 4 C; 5% native PAGE
# T2 sequence: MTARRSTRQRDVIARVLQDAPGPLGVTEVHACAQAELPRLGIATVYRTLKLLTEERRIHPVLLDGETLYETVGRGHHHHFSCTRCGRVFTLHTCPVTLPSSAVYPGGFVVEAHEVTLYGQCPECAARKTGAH
Sequence,binding [1],binding [2]
GAGCCTCTAGCAAATATGTGACAGCACCCTGAAAACCAGATGACCCAGCGTGACGGAATCTGACTGGATCTTGGGAAAGAGGCATTTTTCACAAAAAAGTCGGCCTTTAAGACGAACTCAAGCCCACGCCGTTGGACA (double strand) [p1709a (mntH promoter lacking inverted repeat)],no binding,–
CAGGCTGGGAGAACGGGAATCCATGGCCTTTATTTTAGGCGCGACTAAAATAGTTGTCCAACGGCGTGGGCTTGAGTTCGTCTTAAAGGCCGACTTTTTTGTGAAAAATGCCTCTTTCCCAAGATCCAGTCAGATTCCGTCACGCTGGGTCATCTGGTTTTCAGGGTGCTGTCACATATTTGCTAGAGGCTC (double strand) [p1709b (mntH promoter with inverted repeat)],binds,no binding
